Source: publication PMC10816986, “The Role of Key Amino Acids of the Human Fe(II)/2OG-Dependent Dioxygenase ALKBH3 in Structural Dynamics and Repair Activity toward Methylated DNA” (International Journal of Molecular Sciences, 2024)

B1: wt ALKBH3: wild-type human Fe(II)/2OG-dependent dioxygenase ALKBH3 with N-terminal His-tag, expressed in E. coli (protein, UniProt Q96Q83 1-286, looked up)
Alpha-ketoglutarate-dependent …: MEEKRRRARVQGAWAAPVKSQAIAQPATTAKSHLHQKPGQTWKNKEHHLSDREFVFKEPQQVVRRAPEPRVIDREGVYEISLSPTGVSRVCLYPGFVDVKEADWILEQLCQDVPWKQRTGIREDITYQQPRLTAWYGELPYTYSRITMEPNPHWHPVLRTLKNRIEENTGHTFNSLLCNLYRNEKDSVDWHSDDEPSLGRCPIIASLSFGATRTFEMRKKPPPEENGDYTYVERVKIPLDHGTLLIMEGATQADWQHRVPKEYHSREPRVNLTFRTVYPDPRGAPW
modifications: N-terminal His-tag
notes: wild-type human Fe(II)/2OG-dependent dioxygenase ALKBH3 with N-terminal His-tag, expressed in E. coli
B2: Y143F ALKBH3: ALKBH3 mutant, Tyr143 replaced with Phe (protein, UniProt Q96Q83 1-286, looked up, variant Y143F)
Alpha-ketoglutarate-dependent …: MEEKRRRARVQGAWAAPVKSQAIAQPATTAKSHLHQKPGQTWKNKEHHLSDREFVFKEPQQVVRRAPEPRVIDREGVYEISLSPTGVSRVCLYPGFVDVKEADWILEQLCQDVPWKQRTGIREDITYQQPRLTAWYGELPYTFSRITMEPNPHWHPVLRTLKNRIEENTGHTFNSLLCNLYRNEKDSVDWHSDDEPSLGRCPIIASLSFGATRTFEMRKKPPPEENGDYTYVERVKIPLDHGTLLIMEGATQADWQHRVPKEYHSREPRVNLTFRTVYPDPRGAPW
B3: Y143A ALKBH3: ALKBH3 mutant, Tyr143 replaced with Ala (protein, UniProt Q96Q83 1-286, looked up, variant Y143A)
Alpha-ketoglutarate-dependent …: MEEKRRRARVQGAWAAPVKSQAIAQPATTAKSHLHQKPGQTWKNKEHHLSDREFVFKEPQQVVRRAPEPRVIDREGVYEISLSPTGVSRVCLYPGFVDVKEADWILEQLCQDVPWKQRTGIREDITYQQPRLTAWYGELPYTASRITMEPNPHWHPVLRTLKNRIEENTGHTFNSLLCNLYRNEKDSVDWHSDDEPSLGRCPIIASLSFGATRTFEMRKKPPPEENGDYTYVERVKIPLDHGTLLIMEGATQADWQHRVPKEYHSREPRVNLTFRTVYPDPRGAPW
B4: L177A ALKBH3: ALKBH3 mutant, Leu177 replaced with Ala (protein, UniProt Q96Q83 1-286, looked up, variant L177A)
Alpha-ketoglutarate-dependent …: MEEKRRRARVQGAWAAPVKSQAIAQPATTAKSHLHQKPGQTWKNKEHHLSDREFVFKEPQQVVRRAPEPRVIDREGVYEISLSPTGVSRVCLYPGFVDVKEADWILEQLCQDVPWKQRTGIREDITYQQPRLTAWYGELPYTYSRITMEPNPHWHPVLRTLKNRIEENTGHTFNSLACNLYRNEKDSVDWHSDDEPSLGRCPIIASLSFGATRTFEMRKKPPPEENGDYTYVERVKIPLDHGTLLIMEGATQADWQHRVPKEYHSREPRVNLTFRTVYPDPRGAPW
B5: H191A ALKBH3: ALKBH3 mutant, His191 replaced with Ala (protein, UniProt Q96Q83 1-286, looked up, variant H191A)
Alpha-ketoglutarate-dependent …: MEEKRRRARVQGAWAAPVKSQAIAQPATTAKSHLHQKPGQTWKNKEHHLSDREFVFKEPQQVVRRAPEPRVIDREGVYEISLSPTGVSRVCLYPGFVDVKEADWILEQLCQDVPWKQRTGIREDITYQQPRLTAWYGELPYTYSRITMEPNPHWHPVLRTLKNRIEENTGHTFNSLLCNLYRNEKDSVDWASDDEPSLGRCPIIASLSFGATRTFEMRKKPPPEENGDYTYVERVKIPLDHGTLLIMEGATQADWQHRVPKEYHSREPRVNLTFRTVYPDPRGAPW

Assays:
[1] = system: single-stranded DNA substrate m3C_FAM; experiment: Enzymatic demethylation of single-stranded m3C DNA (chemical quenching, HpaII cleavage, PAGE); format: biochemical; settings: for observed rate constant for demethylation, kobs: single exponential fit of product accumulation; for maximum DNA substrate demethylation degree (product yield): 90 min reaction, 2 µM enzyme and m3C_FAM, 40 µM Fe(II), 1 mM 2OG, 25 °C
Method: The enzymatic activity of wt ALKBH3 dioxygenase and the Y143F, Y143A, L177A, and H191A mutants was investigated in a reaction with a 15nt single-stranded oligonucleotide substrate containing m3C at the ninth position from the 5’-end (see Section 4).
An enzymatic hydroxylation of a single-strand m3C-containing DNA was studied using a chemical quenching technique recently described for the ALKBH2 dioxygenase in [7]. Briefly, a typical reaction mixture contained an equimolar amount (2 µM) of the protein and FAM-labeled DNA substrate (m3C_FAM) in a buffer consisting of 50 mM of HEPES-KOH (pH 7.8), 50 mM of KCl, 10 mM of MgCl2, 1 mM of 2OG, 2 mM of sodium ascorbate, and 40 µM of (NH4)2Fe(SO4)2·6H2O. An equal volume of 0.2 M NaOH was added to […] of aliquots of the mixture to terminate the reaction at certain time points. After neutralization with HCl and desalting, each of the aliquots was supplemented by the complementary DNA strand and treated with the HpaII restriction endonuclease specific to the repaired sequence (CCGG) according to the manufacturer’s protocol. The resulting reaction product was separated from the substrate using denaturating PAGE and visualized by the Amersham Typhoon Imager (Cytiva, Uppsala, Sweden) (Supplementary Figure S1). Data for the wt, Y143F, and Y143A proteins were converted to mol/L units and then fitted to a single exponent (Equation (1)), where P, P0, and Pmax are amounts of product at any given time, at the zero-time point, and the end time point, respectively; kobs is the observed rate constant. (1) P=P0+Pmax(1−exp−kobst) […]
Figure 2 The catalytic activity of wt and mutant ALKBH3 proteins on single-stranded DNA substrate m3C_FAM. Time courses of the dealkylated product accumulation were obtained at 25 °C by mixing an equimolar amount (2 μM) of enzyme and FAM-labeled DNA substrate dissolved in the reaction buffer containing 40 μM Fe(II) and 1 mM 2OG. Each reaction time point is the mean ± SD of three technical replicates.
Figure S1. PAGE analysis of ALKBH3 repair activity towards the m3C -containing substrate. ALKBH3 at 2 µM was incubated with an equimolar amount of a FA M - labelled single-stranded substrate m3C_FAM. The reaction was quenched at each time point by the addition of an equal volume of 0.2 M NaOH.
(§1) (1 picture or pasted object on this page, not shown here)

[2] = Equilibrium fluorescence titration with Ni(II); format: binding; settings: 1 µM apoprotein, 25 °C; read-out: Dissociation constant Kd, Ni(II)
Source text: (§2) To investigate the impact of selected mutations on ALKBH3’s ability to bind its cofactor, co-substrate, and methylated DNA, the fluorescent titration method was employed. It is well-established that enzyme–ligand binding typically leads to a protein conformational change, which in turn can alter the fluorescence intensity of tryptophan and tyrosine residues within the protein sequence. […] In this study, transitional metals (Fe(II), Ni(II), and Co(II)), 2OG, and the m3C substrate served as titrants. Protein fluorescence quenching was measured after the addition of an excess of the ligand to 1 µM of enzyme (Supplementary Figure S2). To determine the equilibrium dissociation constant’s Kd values, the resulting titration curves were analyzed using a non-linear regression algorithm (see Section 4.3 of “Materials and Methods” for details). […] As indicated by the data presented in Table 2, the stability of the wt ALKBH3 apoenzyme’s affinity to various ligands and damaged DNA generally corresponds to the stability of such complexes for AlkB and ALKBH2 enzymes. […] The binding of Ni(II) and Co(II) ions of similar radii was weakened by approximately two-fold. […] This behavior is more characteristic of the bacterial homolog AlkB rather than human ALKBH2 [7].
(§3) The intrinsic tryptophan fluorescence quenching was monitored at the maximum of emission (345 nm, in most cases) using an excitation wavelength of 280 nm, and 5 nm slits. An amount of 2 mM of (NH4)2Fe(SO4)2·6H2O, 2 mM of NiSO4×7H2O, 2 mM of CoSO4·7H2O, 2 mM of 2OG, or 100 µM of m3C substrate was titrated into 1 µM of apoprotein (a free enzyme with no metal or 2OG added) in the presence of 50 mM of HEPES-KOH (pH 7.8), 50 mM of KCl, and 10 mM of MgCl2. When titrating with DNA, the buffer was supplemented with 2 mM of EDTA. The dissociation constant Kd for a model of one-step binding (E + L ↔ EL) was determined using Equations (2)–(5) and a non-linear regression algorithm in the OriginPro 8.1 software (OriginLab Corp., Northampton, MA, USA):(2) Kd=E[L]/[EL] (3) F=f0+f1E+f2[EL] (4) e0=E+[EL] (5) l0=L+[EL] where F is the observed fluorescence intensity at any given ligand (L) concentration; f0 is the background fluorescence; f1 and f2 are partial fluorescence intensities of the free enzyme (E) and enzyme–ligand complex (EL), respectively; e0 and l0 are total concentrations of the enzyme and ligand.
(§4) Figure S2. Equilibrium binding of the wild-type and mutant ALKBH3 proteins to transition metals, 2OG, or m3C-containing DNA. The quenching of the enzyme ﬂuorescence is shown as a function of Fe(II) (A), Ni(II) (B), Co(II) (C), 2OG ( D), and single-stranded m3C substrate (E). The protein concentration was 1 µM. In the course of titration by Fe(II), a sodium ascorbate (1mM) was added to keep the metal in a reduced state. Experimental data points were ﬁtted to a single-site binding mode l (see “Materials and Methods”). Each trace represents the average of three technical […]
as §1

[3] = Equilibrium fluorescence titration with Co(II); format: binding; settings: 1 µM apoprotein, 25 °C; read-out: Dissociation constant Kd, Co(II)
Source text: as §2, §3, §4, §1

m3C substrate = experiment: Equilibrium fluorescence titration with methylated DNA; format: binding; settings: for Kd: 1 µM apoprotein, 2 mM EDTA, 25 °C, read-out: Dissociation constant Kd, m3C substrate; for weakening of contacts with the DNA substrate relative to wt: ratio of Kd for m3C substrate
Source text: as §2
The affinity of the active site of ALKBH3 for methylated DNA was studied using the m3C substrate without fluorescent labels (see Section 4). […] The replacement of key amino acids leads to an approximate 1.4-fold weakening of contacts with the DNA substrate for the Y143F mutant, 2.3-fold for Y143A, 2-fold for L177A, and 1.5-fold for H191A. Therefore, the removal of the bulky side chain of Tyr143 dramatically affects the ability of ALKBH3 to bind damaged DNA, while withdrawal of its OH group only slightly weakens protein–DNA interactions.
as §3, §4, §1

Row | Molecule | observed rate constant for demethylation, kobs [1] | Kd [2] | Kd [3] | Kd (m3C substrate) | maximum DNA substrate demethylation degree (product yield) [1] | weakening of contacts with the DNA substrate relative to wt (m3C substrate)
1 | B1 | 0.70 ± 0.08 min⁻¹ | 42 ± 4 µM | 52 ± 4 µM | 2.8 ± 0.1 µM |  | 
2 | B2 | 0.17 ± 0.02 min⁻¹ | 42 ± 3 µM | 40 ± 3 µM | 3.8 ± 0.5 µM | 30% | ~1.4 fold
3 | B3 |  | 60 ± 7 µM | 44 ± 4 µM | 6.3 ± 0.6 µM | 10% | ~2.3 fold
4 | B4 |  | 90 ± 10 µM | 98 ± 9 µM | 5.7 ± 0.3 µM | ≤ 7% | ~2 fold
5 | B5 |  | 50 ± 4 µM | 59 ± 6 µM | 4.3 ± 0.3 µM | undetectable | ~1.5 fold
